Data set [1] deals with T1, His-FLP (FOUR LIPS, MYB124) (UniProt Q94FL6 1-436).
T1 sequence: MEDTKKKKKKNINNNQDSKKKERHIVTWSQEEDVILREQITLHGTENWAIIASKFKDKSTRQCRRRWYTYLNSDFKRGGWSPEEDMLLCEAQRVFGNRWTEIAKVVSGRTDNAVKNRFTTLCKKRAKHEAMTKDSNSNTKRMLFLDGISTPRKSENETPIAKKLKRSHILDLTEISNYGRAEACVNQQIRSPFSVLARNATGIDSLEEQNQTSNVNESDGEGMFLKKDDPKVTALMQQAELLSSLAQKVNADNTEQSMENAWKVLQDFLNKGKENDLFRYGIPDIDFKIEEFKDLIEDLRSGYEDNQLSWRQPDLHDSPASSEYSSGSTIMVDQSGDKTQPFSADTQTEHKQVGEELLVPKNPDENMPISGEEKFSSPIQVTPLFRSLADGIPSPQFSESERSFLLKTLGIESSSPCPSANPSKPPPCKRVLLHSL
As to the kind of experiment: EMSA; 1x binding buffer (LightShift kit), 2.5% glycerol, 50 mM KCl, 5 mM MgCl2, 0.05% NP-40, 10 mM EDTA, room temperature, 20 min; pH not stated. For orientation: In EMSA bound probe runs differently from free probe, usually more slowly.

The next data set addresses T2, His-MYB88 (UniProt F4IRB4 1-484).
T2 sequence: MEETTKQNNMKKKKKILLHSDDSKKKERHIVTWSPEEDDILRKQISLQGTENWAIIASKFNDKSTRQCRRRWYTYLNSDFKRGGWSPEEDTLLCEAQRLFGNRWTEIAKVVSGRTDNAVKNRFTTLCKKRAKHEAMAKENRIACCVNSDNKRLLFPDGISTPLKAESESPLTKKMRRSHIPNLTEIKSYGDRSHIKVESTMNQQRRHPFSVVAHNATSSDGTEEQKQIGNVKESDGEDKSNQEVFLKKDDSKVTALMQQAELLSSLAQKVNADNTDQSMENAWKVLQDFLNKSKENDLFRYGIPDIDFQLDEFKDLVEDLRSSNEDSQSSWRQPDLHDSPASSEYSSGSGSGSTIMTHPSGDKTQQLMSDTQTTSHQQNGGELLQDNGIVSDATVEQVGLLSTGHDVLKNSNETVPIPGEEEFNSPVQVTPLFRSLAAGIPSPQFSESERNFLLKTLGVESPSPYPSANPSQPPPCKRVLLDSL
The data set is described as above.

B1: Probe-1080 (neighbour element -1086 replaced with A) (dsDNA)
DNA 1: CTTCTAGGAAAAAACAATTCTTGAAAAAATCGCGGAAAGATCTTGATAACATTGTGACT
DNA 2: AGTCACAATGTTATCAAGATCTTTCCGCGATTTTTTCAAGAATTGTTTTTTCCTAGAAG
As for B1, in data set [1], the binding result was “binds”.

B2: Probe-1386 (neighbour element -1392 replaced with A) (dsDNA)
DNA 1: AATGTGTAATTGTCAAGAGGGATAAAAAAACGCGGATGAATCGAAGAAGCAATTGCTTT
DNA 2: AAAGCAATTGCTTCTTCGATTCATCCGCGTTTTTTTATCCCTCTTGACAATTACACATT
On to B2, for which the binding result (in data set [1]; with His-MYB88) was “binds” throughout.

B3: Probe-863 (dsDNA)
DNA 1: AAGATATTAGTTTTTAATTTAGTAATATACCCATATGTTTAATATTGATATCGATATTG
DNA 2: CAATATCGATATCAATATTAAACATATGGGTATATTACTAAATTAAAAACTAATATCTT
B3: the binding result in data set [1] was “no binding”.

B4: Probe-1392 (neighbour element -1386 replaced with A) (dsDNA)
DNA 1: AATGTGTAATTGTCAAGAGGGATAAACCGAAAAAAATGAATCGAAGAAGCAATTGCTTT
DNA 2: AAAGCAATTGCTTCTTCGATTCATTTTTTTCGGTTTATCCCTCTTGACAATTACACATT
Turning to B4, the binding result (in data set [1]; with His-MYB88) was “binds” each time.

B5: Probe-473 (dsDNA)
DNA 1: TTATGTGTATGTTGTTATCTACAATATGTCCGTTTCAATCAGTCGAACAAAAAATACTA
DNA 2: TAGTATTTTTTGTTCGACTGATTGAAACGGACATATTGTAGATAACAACATACACATAA
With B5, in data set [1], the binding result is on record as “no binding”.

B6: Probe-1007 (dsDNA)
DNA 1: CATAAGGTATTCTTTTACACTAATACTTTCCCGACAACAACAACGAAAAACTCCAACCT
DNA 2: AGGTTGGAGTTTTTCGTTGTTGTTGTCGGGAAAGTATTAGTGTAAAAGAATACCTTATG
Take B6: in data set [1], the binding result is on record as “no binding”.

B7: Probe-1086 (neighbour element -1080 replaced with A) (dsDNA)
DNA 1: CTTCTAGGAAAAAACAATTCTTGATACGGTAAAAAAAAGATCTTGATAACATTGTGACT
DNA 2: AGTCACAATGTTATCAAGATCTTTTTTTTACCGTATCAAGAATTGTTTTTTCCTAGAAG
With B7, the binding result in data set [1] is on record as “binds”.

B8: Probe-902 (dsDNA)
DNA 1: TATTTAACTATTGCTTTTTTGATTATTAGCCGGGGTACCAAGATATTAGTTTTTAATTT
DNA 2: AAATTAAAAACTAATATCTTGGTACCCCGGCTAATAATCAAAAAAGCAATAGTTAAATA
With B8, the binding result (in data set [1]; with His-MYB88) was “binds” throughout.

Values taken from PMC4673497.
